Assay results reported in paper PMC11118385 (bioRxiv, 2024).
Where a chain is given by its changes, count along the chain named. Names may count otherwise.

B1: human GrpEL1 (wild type) (natural protein)
chain: CTATKQKNSGQNLEEDMGQSEQKADPPATEKTLLEEKVKLEEQLKETVEKYKRALADTENLRQRSQKLVEEAKLYGIQAFCKDLLEVADVLEKATQCVPKEEIKDDNPHLKNLYEGLVMTEVQIQKVFTKHGLLKLNPVGAKFDPYEHEALFHTPVEGKEPGTVALVSKVGYKLHGRTLRPALVGVVKEA
B2: human GrpEL1 Y173A mutant (natural protein)
chain: B1 chain with Y146A

Key:
cryo-EM structure = target: the molecule itself; assay: cryo-EM structure
[1] = target: human mitochondrial Hsp70 (mortalin) R126W mutant (human, UniProt P38646 47-679, R126W); assay: cryo-EM structure
Sequence of human mitochondrial Hsp70 (mortalin) R126W mutant (P38646 47-679 R126W): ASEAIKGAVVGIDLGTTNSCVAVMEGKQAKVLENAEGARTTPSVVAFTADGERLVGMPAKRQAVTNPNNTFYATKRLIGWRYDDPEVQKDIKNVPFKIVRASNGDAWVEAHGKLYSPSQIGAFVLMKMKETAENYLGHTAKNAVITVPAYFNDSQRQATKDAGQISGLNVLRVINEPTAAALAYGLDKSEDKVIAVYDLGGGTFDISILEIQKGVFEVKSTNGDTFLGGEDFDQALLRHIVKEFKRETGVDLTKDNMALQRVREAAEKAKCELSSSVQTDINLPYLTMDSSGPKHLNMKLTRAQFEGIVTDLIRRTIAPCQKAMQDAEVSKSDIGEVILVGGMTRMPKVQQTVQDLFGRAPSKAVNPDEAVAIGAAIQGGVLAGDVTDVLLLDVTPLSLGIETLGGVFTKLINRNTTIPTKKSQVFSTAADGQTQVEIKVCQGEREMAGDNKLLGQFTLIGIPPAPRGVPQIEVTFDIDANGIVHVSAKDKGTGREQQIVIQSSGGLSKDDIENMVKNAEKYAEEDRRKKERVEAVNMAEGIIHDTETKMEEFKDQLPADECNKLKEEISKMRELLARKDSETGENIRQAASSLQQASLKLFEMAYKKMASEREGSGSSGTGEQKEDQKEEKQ

Binder | stoichiometry N (cryo-EM structure) | binding result [1]
B1 | 2 | –
B2 | – | binds
